Experimental findings from paper PMC2945607 (Molecular cell, 2010) are described below.

The target in the assay is T1, recombinant Caulobacter FtsZ (Caulobacter crescentus, UniProt B8H080 1-508).
T1 sequence (looked up): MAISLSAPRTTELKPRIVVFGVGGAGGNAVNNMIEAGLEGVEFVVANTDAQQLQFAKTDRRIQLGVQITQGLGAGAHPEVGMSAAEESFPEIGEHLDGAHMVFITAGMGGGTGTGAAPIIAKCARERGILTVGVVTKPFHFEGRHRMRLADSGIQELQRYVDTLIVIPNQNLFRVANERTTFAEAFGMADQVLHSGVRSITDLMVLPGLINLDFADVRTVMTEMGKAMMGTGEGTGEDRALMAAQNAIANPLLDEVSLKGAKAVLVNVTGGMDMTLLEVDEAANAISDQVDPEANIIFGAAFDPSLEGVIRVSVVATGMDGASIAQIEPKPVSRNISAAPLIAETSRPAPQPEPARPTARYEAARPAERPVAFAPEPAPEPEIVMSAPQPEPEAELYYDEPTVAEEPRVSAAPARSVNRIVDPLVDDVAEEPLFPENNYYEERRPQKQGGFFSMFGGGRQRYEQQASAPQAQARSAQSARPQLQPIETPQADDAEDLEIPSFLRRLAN
Nature of the assay: right angle light scattering.

Some results are limits rather than exact numbers.

B1: His6-FzlA (natural protein, Caulobacter crescentus, UniProt Q9A2C6 1-228, looked up)
chain: MSVERTLHHFPLDPASRQVRLALGEKRLPFVEMQVRYWEMPPEFTSLNPSGMPPVLVETKHQRNLVICETRAILEHIEETETEPPLLGRDPAERAEARRLLQWFDRKFDNEVNGFLLHEKMEKRLLRMGAPDLAALRQGREALRMHLGYIESLLQTRDWLAGRRMSLADFAAAAHLSVIDYFGDVPWKDFQAAKTWYMKLKSRPCFRPILADRWPGLAPAAHYDDLDF
B1: the “fold increase in light scattering at steady state against FtsZ without FzlA” value is greater than 10 fold.
